Results as given in paper PMC10247153, “Chromatin Sensing by the Auxiliary Domains of KDM5C Regulates Its Demethylase Activity and Is Disrupted by X-linked Intellectual Disability Mutations” (Journal of molecular biology, 2022).
Residue numbers refer to the chain shown, from its start. Each block holds one binder with its values, some of them ahead of it. No end group written: not given here. Me3 = trimethyl; Me2 = dimethyl

How the values were obtained:
Conditions in all cases: both partners purified
[1] = target: T1, PHD1 (KDM5C residues 318–378) (human, UniProt P41229-1 318-378); experiment: NMR titration; 2D 1H-15N HSQC of 200 μM 15N-PHD1 with increasing peptide up to 1:5 PHD1:peptide; 50 mM HEPES pH 7.5, 50 mM KCl, 5 mM BME, 50 μM ZnCl2, 5% D2O, 298 K; Kd from chemical shift change of one residue (I361 or D343), quadratic binding equation
T1 construct: KDM5C, human, PHD1 domain, residues 318-378; 15N-labelled (or 15N,13C) for NMR; also called PHD1 domain of KDM5C; source: E. coli BL21(DE3), M9 minimal medium, purified (Ni-NTA, MonoQ flow-through); not shown: 6xHis, N-terminal, cleaved; SUMO (Smt3), N-terminal, cleaved
T1 sequence (looked up): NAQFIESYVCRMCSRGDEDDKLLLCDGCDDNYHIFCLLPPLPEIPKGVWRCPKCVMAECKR

Avitag-PHD1 = target: T2, Avitag-PHD1 (human, UniProt P41229-1 318-378, biotin on the Avitag (BirA co-expression)); experiment: BLI; biotinylated Avitag-PHD1 (100 nM) loaded on streptavidin biosensors; 100 μM peptide; 50 mM HEPES pH 8, 50 mM KCl, 50 μM ZnCl2, 5 mM BME, 0.05% Tween-20; 25 °C; two phase exponential fit
T2 construct: KDM5C, human, PHD1 domain, residues 318-378; 6xHis-SUMO-Avitag-(GS)2-PHD1 before cleavage by SenP1; also called biotinylated Avitag-PHD1; Avitag-(GS)2-PHD1; source: E. coli BL21(DE3), co-expressed with BirA, purified (Ni-NTA, MonoQ flow-through); not shown: 6xHis, N-terminal, cleaved; SUMO (Smt3), N-terminal, cleaved; Avitag-(GS)2, N-terminal, kept
T2 sequence (looked up): T1 sequence (looked up)

PHD1 D343A mutant = target: T3, PHD1 D343A mutant (human, UniProt P41229-1 318-378, D343A); experiment: NMR titration; 2D 1H-15N HSQC of 200 μM 15N-PHD1 with increasing peptide up to 1:5 PHD1:peptide; 50 mM HEPES pH 7.5, 50 mM KCl, 5 mM BME, 50 μM ZnCl2, 5% D2O, 298 K; Kd from chemical shift change of one residue (I361 or D343), quadratic binding equation
T3 construct: KDM5C, human, PHD1 domain, residues 318-378 (limits as told for wild-type PHD1)
T3 sequence (looked up): T1 sequence (looked up) with D26A

B1: H3K4me1 (1–18) peptide (peptide, UniProt P68431 2-19, looked up)
peptide: ARTK(Me)QTARKSTGGKAPRK
notes: histone H3 N-terminal tail, residues 1-18; source: synthetic peptide (GenScript)
- binding result [1]: binds

B3: H3K4me2 (1–18) peptide (peptide, UniProt P68431 2-19, looked up)
peptide: ARTK(Me2)QTARKSTGGKAPRK
notes: as for B1
- binding result [1]: binds

B4: H3 (1–18) tail peptide (peptide, UniProt P68431 2-19, looked up)
peptide: ARTKQTARKSTGGKAPRK
notes: histone H3 N-terminal tail, residues 1-18; also called H3 (1–18) peptide; H3K4me0 (1–18); source: synthetic peptide (GenScript)
- Kd [1]: 130 µM
- fold decrease in affinity against wild-type PHD1 (PHD1 D343A mutant): ≥ 10 fold

Results, then the binder that gave them:

- binding result (Avitag-PHD1): binds
B2: KDM5C (295–314) peptide (peptide)
peptide: Ac-KEELSHSPEPCTKMTMRLRR-NH2
notes: KDM5C, human, ARID-PHD1 linker, residues 295-314; source: synthetic peptide (GenScript)

- fold lower affinity than the H3 tail [1]: ~3 fold
Binder: Ac-QSVQPSKFNSYGRRAKRLQP-NH2 (source: synthetic peptide (GenScript)) [KDM5C (199–218) peptide]

- binding result [1]: binds
B5: H3K4me3 (1–18) peptide (peptide, UniProt P68431 2-19, looked up)
peptide: ARTK(Me3)QTARKSTGGKAPRK
notes: as for B1
